In US20100292442A1 one finds normalized MFI data, which are given here for 1 substance.

In assay [1] the target is huIL-17RA-FLAG-polyHis (human) (UniProt Q96F46). Put plainly: Luminex binning; bead huIgG control (f15) + IL-17RA; self pair (boxed) [D00007 Fig. 8B].
Assay [2] has the same target. Put plainly: Luminex binning; bead mAb J holds IL-17RA.

With huIgG (antibody), the normalized MFI in assay [1] was determined as 65; in assay [2], 42.
